What was measured:
[1] = system: φ×174 or M13 mp18 circular single-stranded DNA; assay: Assay of catenation of single-stranded DNA; assay type: biochemical; conditions: 4 μM protein; 20 μM circular single-stranded DNA; 1 mM MgCl2; 37° C.
Procedure: (§1) A φ×174 or M13 mp18 circular single-stranded DNA (20 μM) was incubated at 37° C. in 20 mM HEPES-NaOH (pH 7.5), 1 mM DTT, 1 mM MgCl2, and 0.1 mg/ml BSA. Thereafter, the sample was subjected to a deproteination treatment with 0.2% SDS and 1.3 mg/ml proteinase K. The obtained product was separated by 0.9% agarose gel electrophoresis, and a DNA band was then stained with SYBR Gold (Invitrogen).

[2] = system: Ev1 protein; assay: Influence of Rad51B or Rad51 on catenation of single-stranded DNA by the Ev1 protein; assay type: biochemical; conditions: 4 μM Ev1 mutant plus 4 μM Rad51B protein
Procedure: Lanes 1 and 5 indicate the results of control experiments in which neither the Ev1 nor the Rad51B protein was used. Lanes 2 and 6 indicate the results of experiments that were carried out using a 4 μM Rad51B protein in the absence of the Ev1 protein. Lanes 3 and 7 indicate the results of experiments that were carried out using a 4 μM Ev1 protein in the absence of the Rad51B protein. Lanes 4 and 8 indicate the results of experiments that were carried out using a 4 μM Ev1 protein and a 4 μM Rad51B protein. Further, lanes 1-4 indicate the results of experiments that were carried out in the presence of ATP, and lanes 5-8 indicate the results of experiments that were carried out in the absence of ATP. […] Lanes 1 and 5 indicate the results of control experiments in which neither the Ev1 nor the Rad51 protein was used. Lanes 2 and 6 indicate the results of experiments that were carried out using a 4 μM Rad51 protein in the absence of the Ev1 protein. Lanes 3 and 7 indicate the results of experiments that were carried out using a 4 μM Ev1 protein in the absence of the Rad51 protein. Lanes 4 and 8 indicate the results of experiments that were carried out using a 4 μM Ev1 protein and a 4 μM Rad51 protein. Further, lanes 1-4 indicate the results of experiments that were carried out in the presence of ATP, and lanes 5-8 indicate the results of experiments that were carried out in the absence of ATP.
The Rad51B protein was mixed in a concentration of 0.5 to 8 μM with a 4 μM Ev1 protein, and the activity was then measured. Lane 1 indicates the results of a control experiment in which neither the Rad51B protein nor the Ev1 protein was added, and lane 8 indicates the results of a control experiment in which a 8 μM Rad51B protein was added and no Ev1 protein was added. Lanes 2-7 indicate the results of experiments in which the Rad51B protein was added in concentrations of 0 μM, 0.5 μM, 1.0 μM, 2.0 μM, 4.0 μM, and 8.0 μM, respectively, in the presence of 4 μM Ev1.
as §1

[3] = system: φ×174 supercoiled double-stranded DNA; assay: Activity of Ev1 on supercoiled double-stranded DNA; assay type: biochemical; conditions: 4 μM Ev1; 10 μM φ×174 supercoiled and nicked double-stranded DNA
Procedure: Lanes 1 and 2 indicate the results obtained using a φ×174 circular single-stranded DNA. Lanes 3 and 4 indicate the results obtained using a M13 mp18 circular single-stranded DNA. In addition, lanes 1 and 3 indicate the results of control experiments in which no Ev1 protein was used, and lanes 2 and 4 indicate the results of experiments in which the Ev1 protein was used. […] A φ×174 circular single-stranded DNA (20 μM, lanes 1-3), or φ×174 supercoiled and nicked double-stranded DNA molecules (10 μM, lanes 4-6) were used to examine the influence of Ev1 (4 μM, lanes 2 and 5) and Escherichia coli-derived topoisomerase type I (5 units, lanes 3 and 6). Lanes 1 and 4 indicate the results of control experiments in which no Ev1 protein was used.
as §1

[4] = system: φ×174 circular single-stranded DNA; assay: DNA binding assay (single-stranded DNA); conditions: Ev1 0.2-3.2 μM; 40 μM φ×174 circular single-stranded DNA; 37° C., 15 minutes
Procedure: (§2) Subsequently, the binding ability of the Ev1 protein to DNA was analyzed. The Ev1 protein was mixed with a φ×174 circular single-stranded DNA (40 μM) or a φ×174 supercoiled double-stranded DNA (10 μM) in 10 μl of a reaction solution (20 mM HEPES (pH 7.5), 1 mM DTT, 1 mM MgCl2, and 100 mg/ml BSA), and the mixture was then reacted at 37° C. for 15 minutes. The reaction product was analyzed by 0.8% agarose gel electrophoresis (3 V/cm, 3 hours) using a 1×TAE (40 mM Tris-acetate and 1 mM EDTA) buffer. A band of DNA was stained with ethidium bromide (FIG. 3).

[5] = system: φ×174 supercoiled double-stranded DNA; assay: DNA binding assay (double-stranded DNA); conditions: Ev1 0.2-3.2 μM; 10 μM φ×174 supercoiled double-stranded DNA; 37° C., 15 minutes
Procedure: as §2

[6] = target: T1, Rad51B protein / Ev1 protein (Homo sapiens, UniProt O15315+Q9UI08); assay: Pull-down assay using Ev1- or Rad51B-bound beads; assay type: binding; conditions: Affi-Gel 10 beads, 10 μg protein, room temperature, 150 minutes
T1 construct: in accordance with the protocols used in purification of the entire-length Ev1 protein; 6xHis (N, cleaved yes); made in house; host or cells: Ev1: E. coli BL21 (DE3) codon plus-RP
T1 sequence (Q9UI08 1-418 isoform Q9UI08-2): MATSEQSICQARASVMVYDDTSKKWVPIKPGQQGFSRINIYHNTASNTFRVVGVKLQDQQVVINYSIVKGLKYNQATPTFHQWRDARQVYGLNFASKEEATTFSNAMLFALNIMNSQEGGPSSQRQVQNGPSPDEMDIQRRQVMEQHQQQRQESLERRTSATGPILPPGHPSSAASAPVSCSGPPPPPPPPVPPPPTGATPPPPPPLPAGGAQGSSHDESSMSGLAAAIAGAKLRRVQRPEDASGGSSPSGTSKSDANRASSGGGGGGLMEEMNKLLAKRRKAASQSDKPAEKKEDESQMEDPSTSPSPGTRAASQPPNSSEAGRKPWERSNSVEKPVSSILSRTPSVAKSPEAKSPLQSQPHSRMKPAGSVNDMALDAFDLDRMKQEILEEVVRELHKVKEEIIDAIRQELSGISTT
T1 sequence (O15315 1-350 isoform O15315-1): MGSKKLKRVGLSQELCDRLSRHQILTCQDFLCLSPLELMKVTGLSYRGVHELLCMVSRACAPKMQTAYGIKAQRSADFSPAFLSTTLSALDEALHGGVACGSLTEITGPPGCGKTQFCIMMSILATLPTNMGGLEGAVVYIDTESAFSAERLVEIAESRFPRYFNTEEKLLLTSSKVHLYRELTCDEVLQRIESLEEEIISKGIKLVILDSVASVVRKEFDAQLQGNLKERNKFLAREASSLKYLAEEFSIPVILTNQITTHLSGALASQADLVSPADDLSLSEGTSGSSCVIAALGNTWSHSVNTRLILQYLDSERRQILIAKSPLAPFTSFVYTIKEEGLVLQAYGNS
Procedure: Thereafter, the obtained mixture was incubated at 4° C. overnight. The Affi-Gel 10-Ev1 beads were washed 3 times with 500 μl of washing buffer 1 (20 mM potassium phosphate (pH 8.5), 30% glycerol, 700 mM NaCl, 5 mM 2-mercaptoethanol, and 0.05% Triton X-100). The Affi-Gel 10-Rad51B beads were washed 3 times with washing buffer 2 (20 mM HEPES-NaOH (pH 7.3), 30% glycerol, 90 mM NaCl, 2 mM 2-mercaptoethanol, 0.1% Triton X-100, 2 mM ammonium sulfate, and 0.1 mM EDTA). Thereafter, a 50% suspension of such Affi-Gel 10-protein was prepared, and it was then preserved at 4° C.
In order to carry out a binding assay, an Affi-Gel 10-protein suspension (30 μl) was incubated with 10 μg of an Ev1 or Rad51B protein at room temperature for 150 minutes. Affi-Gel 10-Ev1 beads were washed 4 times with 100 μl of buffer 1 (20 mM potassium phosphate (pH 8.5), 30% glycerol, 700 mM NaCl, 5 mM 2-mercaptoethanol, and 0.3% Triton X-100). Affi-Gel 10-Rad51B beads were washed 4 times with 100 μl of buffer 2 (20 mM HEPES-NaOH (pH 7.3), 30% glycerol, 90 mM NaCl, 2 mM 2-mercaptoethanol, 2 mM ammonium sulfate, 0.1 mM EDTA, and 0.35% Triton X-100). An SDS-PAGE sample treatment buffer (2×) was directly mixed with the washed beads, and the obtained mixture was then subjected to a heat treatment at 100° C. for 2 minutes. […]

B1: Ev1 (1-221) mutant: Ev1 fragment of amino acid residues 1-221, comprises EVH1 and a proline-rich domain (protein, UniProt Q9UI08 1-221, looked up, fragment)
chain: MSEQSICQARASVMVYDDTSKKWVPIKPGQQGFSRINIYHNTASNTFRVVGVKLQDQQVVINYSIVKGLKYNQATPTFHQWRDARQVYGLNFASKEEATTFSNAMLFALNIMNSQEGGPSSQRQVQNGPSPDEMDIQRRQVMEQHQQQRQESLERRTSATGPILPPGHPSSAASAPVSCSGPPPPPPPPVPPPPTGATPPPPPPLPAGGAQGSSHDESSMS
ssDNA catenation activity (multimer formation of circular single-stranded DNA) [1]: did not exhibit such ssDNA catenation activity | ssDNA catenation activity with Rad51B protein added [2]: no activity was detected

B2: Ev1 protein: human Ev1 protein (NCBI accession No. AAF21709), recombinant from E. coli, His tag removed (protein)
chain: MATSEQSICQARASVMVYDDTSKKWVPIKPGQQGFSRINIYHNTASNTFRVVGVKLQDQQVVINYSIVKGLKYNQATPTFHQWRDARQVYGLNFASKEEATTFSNAMLFALNIMNSQEGGPSSQRQVQNGPSPDEMDIQRRQVMEQHQQQRQESLERRTSATGPILPPGHPSSAASAPVSCSGPPPPPPPPVPPPPTGATPPPPPPLPAGGAQGSSHDESSMSGLAAAIAGAKLRRVQRPEDASGGSSPSGTSKSDANRASSGGGGGGLMEEMNKLLAKRRKAASQSDKPAEKKEDESQMEDPSTSPSPGTRAASQPPNSSEAGRKPWERSNSVEKPVSSILSRTPSVAKSPEAKSPLQSQPHSRMKPAGSVNDMALDAFDLDRMKQEILEEVVRELHKVKEEIIDAIRQELSGISTT
ssDNA catenation activity (multimer formation of circular single-stranded DNA) [1]: the circular single-stranded DNA formed a multimer | change of supercoiled double-stranded DNA [3]: the supercoiled double-stranded DNA was not particularly changed | binding to single-stranded DNA [4]: efficiently binds | binding to supercoiled double-stranded DNA [5]: efficiently binds | binding of Ev1 protein to Rad51B (pull-down) [6]: directly binds to Rad51B
